Source: US20110318339A1 (FABRUS, published 2011)

How the values were obtained:
[1] = target: T1, rHuman Erythropoietin R/Fc Chimera, CF (Cat# 963-ER) (human, UniProt P19235 25-250); assay: Multispot ECL; Fab 130 nM
T1 construct: Bought from R&D Systems; also called EPO R/Fc; Epo R/Fc chimera
T1 sequence (looked up): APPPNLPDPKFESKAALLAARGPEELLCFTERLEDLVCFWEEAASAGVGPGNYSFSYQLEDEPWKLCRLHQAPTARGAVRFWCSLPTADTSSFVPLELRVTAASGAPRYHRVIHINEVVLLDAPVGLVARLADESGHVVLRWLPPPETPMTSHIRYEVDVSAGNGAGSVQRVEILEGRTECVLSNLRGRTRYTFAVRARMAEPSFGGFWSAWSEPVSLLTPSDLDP
Method: (§1) An 150 μl aliquot of 1% Bovine Serum Albumin (BSA) in Tris-buffered Saline Tween (TBST) was added to each well and allowed to incubate for 30 min at 20° C. followed by washing and tap drying to completely remove any residual solution. Subsequently, a 12.5 μl aliquot of 1% BSA TBST was added to each well followed by the addition of a 12.5 μl aliquot of a purified Fab. The plate was sealed and incubated for 1 hour at 20° C. with shaking.
(§2) Detection antibodies were prepared by individually conjugating both goat anti-human Kappa light chain polyclonal antibody (K3502-1MG, Sigma-Aldrich) and goat anti-human Lambda light chain polyclonal antibody (L1645-1 mL, Sigma-Aldrich) with Ruthenium (II) tris-bipyridine-(4-methylsulfone)-N-hydroxysuccinimide (SULFO-TAG NHS-ester, Meso Scale Discovery) according to the manufacturer's instructions. TAG-detection antibody at 25 μl was added to each well and allowed to incubate for 1 hour at 20° C. with shaking. Finally, 15 μl of Read Buffer P with Surfactant (Cat # R92PC-1, Meso Scale Discovery) was added to each well. The electrochemiluminescence was measured using a Sector Imager 2400 (Meso Scale Discovery). Data was analyzed by comparing the ECL signals for an antigen to the blank of each well. A signal to blank ratio of 4 or more was considered a “Hit” Fab.
(§3) To confirm a “Hit” from the initial Multispot ECL screening, a Fab concentration dependent titration was carried out to determine the Fab-antigen binding affinity.

[2] = target: T2, rHuman IGF-1 sR, (IGF-1 sR), CF (Cat# 391-GR) (human, UniProt P08069 31-932); assay: Multispot ECL; Fab 130 nM
T2 construct: Bought from R&D Systems; also called insulin-like growth factor-1 soluble receptor
Method: as §1, §2, §3

[3] = target: T3, rHuman CD44/Fc Chimera, CF (Cat# 3660-CD) (human, UniProt P16070 21-220); assay: Multispot ECL; Fab 130 nM
T3 construct: Bought from R&D Systems
Method: as §1, §2, §3

[4] = target: T4, rHuman EGF R/Fc Chimera, CF (Cat# 344-ER) (human, UniProt P00533 25-645); assay: Multispot ECL; Fab 130 nM
T4 construct: Bought from R&D Systems; also called epidermal growth factor receptor (EGF R)
Method: as §1, §2, §3

[5] = target: T5, rHuman Notch-1/Fc Chimera, CF (Cat# 3647-TK) (human, UniProt P46531 19-526); assay: Multispot ECL; Fab 130 nM
T5 construct: Bought from R&D Systems
Method: as §1, §2, §3

[6] = target: T6, rHuman ErbB2/Fc Chimera, CF (Cat# 1129-ER) (human, UniProt P04626 23-652); assay: Multispot ECL; Fab 130 nM
T6 construct: Bought from R&D Systems; also called human epidermal growth factor 2 receptor (ErbB2)
Method: as §1, §2, §3

[7] = target: T7, Recombinant Human DLL4 (Cat# 1506-D4/CF) (human, UniProt Q9NR61 27-529); assay: Multispot ECL; Fab 130 nM
T7 construct: Bought from R&D Systems; also called rHuman DLL4; hDLL4
Method: as §1, §2, §3

[8] = target: T8, rHuman HGF R/c-MET/Fc Chimera, CF (Cat# 358-MT/CF) (human, UniProt P08581 25-932); assay: Multispot ECL; Fab 130 nM
T8 construct: Bought from R&D Systems; also called HGF R/Fc; hepatocyte growth factor receptor (HGF R/c-Met)
Method: as §1, §2, §3

[9] = target: T1, rHuman Erythropoietin R/Fc Chimera, CF …; assay: Multispot ECL; Fab 8.1 nM
Method: as §1, §2, §3

[10] = target: T4, rHuman EGF R/Fc Chimera, CF (Cat# …); assay: Multispot ECL; Fab 8.1 nM
Method: as §1, §2, §3

[11] = target: T5, rHuman Notch-1/Fc Chimera, CF (Cat# …); assay: Multispot ECL; Fab 8.1 nM
Method: as §1, §2, §3

[12] = target: T6, rHuman ErbB2/Fc Chimera, CF (Cat# …); assay: Multispot ECL; Fab 8.1 nM
Method: as §1, §2, §3

[13] = target: T8, rHuman HGF R/c-MET/Fc Chimera, CF (Cat# …); assay: Multispot ECL; Fab 8.1 nM
Method: as §1, §2, §3

ECL signal [1]: 2150 | ECL signal [2]: 1970 | ECL signal [3]: 1750 | ECL signal [4]: 1750 | ECL signal [5]: 1760 | ECL signal [6]: 1530 | ECL signal [7]: 7740 | ECL signal [8]: 1880 | ECL signal [9]: 660 | ECL signal [10]: 560 | ECL signal [11]: 612 | ECL signal [12]: 557 | ECL signal [13]: 551
B1: Fab VH1-8_IGHD2-2*01_IGHJ6*01 & L12_IGKJ1*01 (Fab, V domains shown)
VH: QVQLVQSGAEVKKPGASVKVSCKASGYTFTSYDINWVRQATGQGLEWMGWMNPNSGNTGYAQKFQGRVTMTRNTSISTAYMELSSLRSEDTAVYYCARGGYCSSTSCYADYYYYYGMDVWGQGTTVTVSS
VL: not shown
